This passage reports IC50 of inhibition of demethylase activity (AlphaScreen method) results from publication PMC5384220.

For this assay, the target named is T1, N-terminally Hexa-His-tagged KDM4A (residues 1–359) (human) (UniProt O75164).
T1 sequence: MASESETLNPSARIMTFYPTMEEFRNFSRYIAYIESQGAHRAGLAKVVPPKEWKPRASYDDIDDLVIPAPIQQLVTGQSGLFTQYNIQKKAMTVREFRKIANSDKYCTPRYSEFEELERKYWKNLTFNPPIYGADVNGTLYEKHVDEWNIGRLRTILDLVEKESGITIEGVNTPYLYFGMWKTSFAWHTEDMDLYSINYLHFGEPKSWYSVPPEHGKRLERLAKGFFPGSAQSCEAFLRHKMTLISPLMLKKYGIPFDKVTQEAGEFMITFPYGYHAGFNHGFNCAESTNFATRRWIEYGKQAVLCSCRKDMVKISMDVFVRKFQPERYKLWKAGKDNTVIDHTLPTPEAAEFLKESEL

Consider RRRRRRRRR [PolyR (Arg)9 peptide], for which the IC50 of inhibition of demethylase activity (AlphaScreen method) was 0.04 µM.
